The target of assay [1] is T1, human TIGIT expressed on cells (human, UniProt Q495A1 22-244).
T1 construct: whole, on cells; also called human TIGIT overexpressed mammalian cells; human TIGIT cells
T1 sequence (looked up): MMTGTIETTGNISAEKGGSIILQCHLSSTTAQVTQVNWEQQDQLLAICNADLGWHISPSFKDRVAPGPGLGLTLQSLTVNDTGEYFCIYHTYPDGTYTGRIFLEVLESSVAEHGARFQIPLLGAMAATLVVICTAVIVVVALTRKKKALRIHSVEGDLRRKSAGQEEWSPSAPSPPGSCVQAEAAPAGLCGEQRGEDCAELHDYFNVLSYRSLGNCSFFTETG
The assay is described as follows: flow cytometry (FACS) on human TIGIT overexpressing mammalian cells. Here is the method:
(§1) To evaluate the antigen binding property, the humanized antibodies were analyzed for their binding to human TIGIT overexpressed mammalian cells by FACS. Briefly, human TIGIT cells were firstly incubated with 3-fold serious diluted humanized antibodies starting at 5 µg/ml at 4° C. for 40 mins.

Assay [2] has as its target T2, human TIGIT-His protein (human, UniProt Q495A1 22-141).
T2 construct: Recombinant protein; also called human TIGIT-his tag; hTIGIT-His
T2 sequence (looked up): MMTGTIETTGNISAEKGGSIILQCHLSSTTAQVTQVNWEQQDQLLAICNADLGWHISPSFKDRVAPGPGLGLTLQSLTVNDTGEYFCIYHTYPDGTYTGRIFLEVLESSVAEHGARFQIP
The assay is described as follows: ELISA, plate coated with human TIGIT-His, anti-human IgG-HRP, OD 450nm; unit taken from the axis Log[Conc.]/ng/ml. The procedure:
(§2) To evaluate the antigen binding activity, LP010-02 (Hu02-human IgG1 Fc) and control antibody Tiragolumab (RG6058, Roche), which contains the same IgG1 Fc, were subjected to ELISA testing. Briefly, microtiter plates were coated with human TIGIT-his protein at 0.5 µg/ml in PBS, 100 µl/well at 4° C. overnight, then blocked with 150 µl/well of 1% BSA. Three-fold dilutions of humanized antibodies starting from 3 µg/ml were added to each well and incubated for 1 hour at 37° C. The plates were washed with PBS/Tween and then incubated with Goat-anti-human IgG antibody conjugated with Horse Radish Peroxidase (HRP) for 0.5 hour at 37° C. After washing, the plates were developed with the TMB substrate and analyzed by spectrophotometer at OD 450 nm.

Assay [3] has as its target T3, biotin-labeled human TIGIT protein (human, UniProt Q495A1 22-141, biotin-labeled (sites not given)).
T3 construct: also called recombinant human TIGIT
T3 sequence (looked up): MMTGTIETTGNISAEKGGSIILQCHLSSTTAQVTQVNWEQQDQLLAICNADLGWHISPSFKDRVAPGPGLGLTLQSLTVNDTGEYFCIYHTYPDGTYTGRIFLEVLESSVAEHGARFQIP
The assay is described as follows: ELISA blocking assay: CD155-hFc coated, biotin-labeled human TIGIT, antibody titrated. Here is the method: To evaluate the blocking effects of Hu02 and Hu06 on recombinant human TIGIT to bind to its receptor CD155, an ELISA based receptor blocking assay was used.
Briefly, microtiter plates were coated with human CD155-hFc protein at 5 µg/ml in PBS, 100 µl/well at 4° C. overnight, then blocked with 150 µl/well of 1% BSA. 50 µl biotin-labeled human TIGIT protein and 3-fold dilutions of Hu02 and Hu06 antibodies starting from 10 µg/ml at 50 µl were added to each well and incubated for 1 hour at 37° C. The plates were washed with PBS/Tween and then incubated with Streptavidin-HRP for 10 mins at 37° C. After washing, the plates were developed with TMB substrate and analyzed by spectrophotometer at OD 450 nm.

Assay [4] deals with T1, human TIGIT expressed on cells. Kind of assay: flow cytometry on human TIGIT overexpressing cells, Alexa Fluor 647 anti-human IgG; unit from the x axis. Here is the method:
as §1

The target is the same in assay [5]. Kind of assay: cell-based or functional assay.
Assay [6] has the same target. Kind of assay: cell-based or functional assay. This is another data set of the same source.
Assay [7] deals with T2, human TIGIT-His protein. Kind of assay: SPR (Biacore) affinity ranking, human TIGIT-His.
Assay [8] concerns the target T2, human TIGIT-His protein. Kind of assay: SPR (Biacore T200), antibody captured on CM5 chip, TIGIT-His as analyte. The procedure:
The binding of the 76D12B10 antibodies to recombinant TIGIT protein (human TIGIT-his tag) was tested with BIACORE™ using a capture method. The 76D12B10 mAbs was captured using CM5 chip. A series dilution of human TIGIT-his tag protein was injected over captured antibody for 1 min at a flow rate of 30 µl/min. The antigen was allowed to dissociate for 300 s. All the experiment were carried out on a Biacore T200. Data analysis was carried out using Biacore T200 evaluation software.

The next assay has as its target T4, mouse TIGIT protein (mouse, UniProt P86176 29-148, limits assumed).
T4 construct: Recombinant protein coated on the plate
T4 sequence (looked up): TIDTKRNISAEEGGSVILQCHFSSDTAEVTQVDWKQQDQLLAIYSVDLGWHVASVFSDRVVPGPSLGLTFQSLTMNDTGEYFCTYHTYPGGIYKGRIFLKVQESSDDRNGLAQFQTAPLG
Kind of assay: ELISA, mouse TIGIT coated at 0.5 µg/ml. Here is the method:
(§3) ELISA testing was carried out to evaluate the binding of chimeric antibodies to human, mouse, rat, and cyno TIGIT, respectively. Briefly, microtiter plates were coated with human, mouse, rat and cyno TIGIT proteins at 0.5 µg/ml in PBS, 100 µl/well at 4° C. overnight, then blocked with 150 µl/well of 1% BSA. Three-fold dilutions of chimeric antibodies or biotinylated chimeric antibodies starting from 10 µg/ml were added to each well and incubated for 1 hour at 37° C. The plates were washed with PBS/Tween and then incubated with Goat-anti-human IgG Fab antibody conjugated with Horse Radish Peroxidase (HRP) or Streptavidin-HRP for 30 mins at 37° C. After washing, the plates were developed with TMB substrate and analyzed by spectrophotometer at OD 450 nm.

The target in assay [9] is T2, human TIGIT-His protein. The assay is described as follows: ELISA, plate coated with human TIGIT-His, anti-human IgG-HRP, OD 450nm; unit taken from the axis Log[Conc.]/ng/ml. The procedure: as §2, with “Hu02” for “LP010-02 (Hu02-human IgG1 Fc)”, “Hu06” for “control antibody Tiragolumab (RG6058, Roche), which contains the same IgG1 Fc,”, “test.” for “testing.”, “with” for “with the”
This is another data set of the same source.

Assay [10] addresses T2, human TIGIT-His protein. Kind of assay: ELISA, human TIGIT-His coated. Here is the method: To evaluate the binding activity of 76D12B10, the chimeric mAb was subjected to ELISA test. Briefly, microtiter plates were coated with human TIGIT-His protein at 0.5 µg/ml in PBS, 100µl/well at 4° C. overnight, then blocked with 150 µl/well of 1% BSA. Three-fold dilutions of 76D12B10 antibodies starting from 10 µg/ml were added to each well and incubated for 1 hour at 37° C. The plates were washed with PBS/Tween and then incubated with Goat-anti-human IgG antibody conjugated with Horse Radish Peroxidase (HRP) for 30 mins at 37° C. After washing, the plates were developed with TMB substrate and analyzed by spectrophotometer at OD 450 nm.
as §3

In assay [11] the target is T2, human TIGIT-His protein. The assay is described as follows: ELISA, plate coated with human TIGIT-His, anti-human IgG-HRP, OD 450nm; unit taken from the axis Log[Conc.]/ng/ml. Here is the method: To evaluate the antigen binding activity, the humanized antibodies were subjected to ELISA test. Briefly, microtiter plates were coated with human TIGIT-his protein at 0.5 µg/ml in PBS, 100 µl/well at 4° C. overnight, then blocked with 150 µl/well of 1% BSA. Three-fold dilutions of humanized antibodies starting from 3 µg/ml were added to each well and incubated for 1 hour at 37° C. The plates were washed with PBS/Tween and then incubated with Goat-anti-human IgG antibody conjugated with Horse Radish Peroxidase (HRP) for 30 mins at 37° C. After washing, the plates were developed with TMB substrate and analyzed by spectrophotometer at OD 450 nm.
The source holds these as a separate data set.

B1: LP010-02 (Hu02-human IgG1 Fc) (antibody, V domains shown)
VH: EVQLQESGPGLVKPSETLSLTCAVSGYSISSGYDWHWIRQPPGKGLEWIGFIRDSGSTVYNPSLKGRITISHDTSKNQFSLKLSSVTAADTAVYYCARGLFWYFDVWGQGTTVTVSS
VL: DIQMTQSPSSLSASVGDRVTITCRTSENIFSYLAWYQQKPGKVPKLLIYNTKTLAEGVPSRFSGSGSGTDFTLTISSLQPEDVATYYCQHHYGNPLTFGQGTKLEIK
Consider B1, for which the EC50 in assay [1] was 32.8 ng/mL. In addition, the EC50 in the assay with human TIGIT-His protein [2] stood at 6.54 ng/mL. In assay [3], this molecule displayed an IC50 of 531 ng/mL. This molecule came in with a LogEC50 in assay [4] of 1.52 Log[Conc.]/ng/ml. For the same molecule, in assay [5], the “EC50, NFAT luciferase reporter (RLU), TIGIT-CD226-NFAT effector cells with Raji-CD155 target cells” value is 1950 pM and the “LogEC50, NFAT luciferase reporter (RLU), TIGIT-CD226-NFAT effector cells with Raji-CD155 target cells” value worked out at 0.29 Log[Conc.]/nM.

B2: 76D12B10 chimeric antibody (antibody, V domains shown)
VH: DVQLQESGPGMVKPSQSLSLTCTATGYSITSGYDWHWIRHFPGKKLEWMGFIRDSGSTVYNPSLKGRISITHDTSKNRFFLKLNSVTPEDTATYFCARGLFWYFDVWGTGTTVTVSS
VL: DIQMTQSPASLSASVGETVTITCRTSENIFSYLAWYQQKQGNSPQLLVHNTKTLAEGVPSRFSGSGSGTQFSLKISNLQPEDFGSYYCQHHYGNPLTFGAGTKLELK
notes: Mouse variable regions of hybridoma clone 76D12B10; tested as chimeric mAb (detected with anti-human IgG); also called 76D12B10-Chimera; 76D12B10 chimera
As to B2, in assay [6], the “NFAT luciferase production, EC50” value stood at 1240 pM. Also, the Kd with human TIGIT-His protein [7] stood at 16.1 pM; with human TIGIT-His protein [8], 259 pM. Further, the koff stood at 0.000182 s⁻¹ with human TIGIT-His protein [7] and 0.000326 s⁻¹ with human TIGIT-His protein [8]. Also, the kon with human TIGIT-His protein [7] is 1.13e+07 M⁻¹ s⁻¹; in the assay with human TIGIT-His protein [8], 1.26e+06 M⁻¹ s⁻¹. Moreover, in the assay with mouse TIGIT protein, the binding result is listed as “no binding”. The molecule also showed an IC50 in [3] of 1110 ng/mL. Also, the EC50 in the assay with human TIGIT-His protein [9] was 7.6 ng/mL; with human TIGIT-His protein [10], 8.57 ng/mL; in the assay with human TIGIT-His protein [11] it was 9.37 ng/mL.

These data come from patent US11028172 (LEPU BIOPHARMA, dated 2021).
